In US12178803B2, “CD47 blockade with PARP inhibition for disease treatment” (TRILLIUM THERAPEUTICS ULC, priority 2018, dated 2024):

Experiment: Systemic toxicity by clinical parameter scoring in the xenograft study
Assay type: in vivo
Details: SIRPαFc added to niraparib and/or RT
Method: Niraparib (50 mg/kg) was administered 1 hour prior to RT, 5 times per week for 1 week. Mice were treated with whole abdomen radiotherapy (external beam radiation therapy) at a dose of 2 Gy for 2 fractions using an image-guided small animal irradiator (225 kVp, 13 mA). Treatment was initiated on day 7 following tumor inoculation. Treatment efficacy was assessed by bioluminescent imaging (BLI) and animal survival. Systemic toxicity was evaluated by clinical parameter scoring.

SIRPαFc: CD47 blocking fusion protein: IgV domain of human SIRPα V2 fused to a human IgG Fc region; preferred SEQ ID NO:8
additional toxicity when combined with PARPi (niraparib) and/or RT: without showing additional toxicity
